Measured values from publication doi:10.1101/2020.07.30.230052 (bioRxiv, 2020).
Values belong to the molecule of their own block, whether it stands above or below them.

B1: Oligo-histidine tagged NlpI (His-NlpI) (natural protein, Escherichia coli, UniProt P0AFB1 19-294, looked up)
chain: CSNTSWRKSEVLAVPLQPTLQQEVILARMEQILASRALTDDERAQLLYERGVLYDSLGLRALARNDFSQALAIRPDMPEVFNYLGIYLTQAGNFDAAYEAFDSVLELDPTYNYAHLNRGIALYYGGRDKLAQDDLLAFYQDDPNDPFRSLWLYLAEQKLDEKQAKEVLKQHFEKSDKEQWGWNIVEFYLGNISEQTLMERLKADATDNTSLAEHLSETNFYLGKYYLSLGDLDSATALFKLAVANNVHNFVEHRYALLELSLLGQDQDDLAESDQQ
B2: PBP4 (penicillin binding protein 4, DD-carboxy/endopeptidase) of Escherichia coli, wild type, purified (enzyme)
chain: ANVDEYITQLPAGANLALMVQKVGASAPAIDYHSQQMALPASTQKVITALAALIQLGPDFRFTTTLETKGNVENGVLKGDLVARFGADPTLKRQDIRNMVATLKKSGVNQIDGNVLIDTSIFASHDKAPGWPWNDMTQCFSAPPAAAIVDRNCFSVSLYSAPKPGDMAFIRVASYYPVTMFSQVRTLPRGSAEAQYCELDVVPGDLNRFTLTGCLPQRSEPLPLAFAVQDGASYAGAILKDELKQAGITWSGTLLRQTQVNEPGTVVASKQSAPLHDLLKIMLKKSDNMIADTVFRMIGHARFNVPGTWRAGSDAVRQILRQQAGVDIGNTIIADGSGLSRHNLIAPATMMQVLQYIAQHDNELNFISMLPLAGYDGSLQYRAGLHQAGVDGKVSAKTGSLQGVYNLAGFITTASGQRMAFVQYLSGYAVEPADQRNRRIPLVRFESRLYKDIYQNN

Experiments:
[1] = biological target: N-terminal domain of LpoA (LpoA^N, residues G28-T256) (Escherichia coli) (UniProt P45464); experiment: MST
[2] = biological target: LpoA, full length version, purified (Escherichia coli) (UniProt P45464); experiment: MST
[3] = biological target: PBP4 lacking domain 3 (PBP4ΔD3), purified (Escherichia coli) (UniProt P24228); experiment: AUC
[4] = biological target: B2; experiment: pull-down
AUC = biological target: the molecule itself; experiment: AUC

Chain of LpoA, full length version, purified (Escherichia coli) (P45464 27-678): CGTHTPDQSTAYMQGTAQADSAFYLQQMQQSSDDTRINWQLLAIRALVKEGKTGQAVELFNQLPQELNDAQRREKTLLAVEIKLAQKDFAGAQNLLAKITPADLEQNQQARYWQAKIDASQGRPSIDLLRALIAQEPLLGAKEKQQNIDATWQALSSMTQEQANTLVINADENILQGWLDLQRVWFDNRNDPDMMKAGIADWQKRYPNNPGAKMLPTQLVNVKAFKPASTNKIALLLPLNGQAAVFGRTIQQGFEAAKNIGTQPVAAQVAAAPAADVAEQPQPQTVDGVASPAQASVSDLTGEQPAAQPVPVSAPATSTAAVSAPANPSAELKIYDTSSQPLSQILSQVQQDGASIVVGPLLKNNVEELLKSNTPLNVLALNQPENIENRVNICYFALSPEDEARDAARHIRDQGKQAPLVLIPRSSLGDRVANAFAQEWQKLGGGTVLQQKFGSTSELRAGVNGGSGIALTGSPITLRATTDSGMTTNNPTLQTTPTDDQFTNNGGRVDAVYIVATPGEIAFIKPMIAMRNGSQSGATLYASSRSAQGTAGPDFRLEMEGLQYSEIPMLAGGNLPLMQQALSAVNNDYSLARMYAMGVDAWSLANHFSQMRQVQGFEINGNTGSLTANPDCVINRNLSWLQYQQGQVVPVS
Chain of N-terminal domain of LpoA (LpoA^N, residues G28-T256) (Escherichia coli) (P45464 28-256): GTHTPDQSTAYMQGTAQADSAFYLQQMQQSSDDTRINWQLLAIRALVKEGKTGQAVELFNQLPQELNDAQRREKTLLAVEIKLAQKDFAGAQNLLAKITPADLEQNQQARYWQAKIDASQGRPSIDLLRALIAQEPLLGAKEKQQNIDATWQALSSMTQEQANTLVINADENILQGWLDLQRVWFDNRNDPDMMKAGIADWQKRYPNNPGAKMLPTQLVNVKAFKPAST

fold decrease of app. KD against wild-type PBP4 [1]: 50 fold | Kd [2]: 153 nM | stoichiometry N [3]: 2
Molecule: PBP4 lacking domain 3 (PBP4ΔD3), purified (from UniProt P24228 21-477) (enzyme)

Molecule: B1
binding result [4]: binds

Molecule: B2
stoichiometry N (AUC): 2
